Results: patent US20120276102A1 (Pfizer, published 2012)

Key:
[1] = molecular target: T1, human IL-21R expressed on cells (human, UniProt Q9HBE5 20-538); assay: cell ELISA, CHO cells
T1 construct: also called human IL-21R-BaF3; human IL-21R-TF1

[2] = molecular target: T2, rat IL-21R expressed on cells (rat); assay: cell ELISA, CHO cells
T2 construct: whole, on cells

[3] = molecular target: T3, cynomolgus monkey IL-21R expressed on cells (cynomolgus monkey, UniProt G7Q0S8 41-559); assay: cell ELISA, CHO cells
T3 construct: whole, on cells

[4] = molecular target: T4, human gamma (γ) common chain expressed on CHO cells (human, UniProt P31785 23-369); assay: cell ELISA, CHO cells
T4 construct: whole, on cells; Control protein; also called human IL-2R-γ common subunit; human γ-common
T4 sequence (looked up): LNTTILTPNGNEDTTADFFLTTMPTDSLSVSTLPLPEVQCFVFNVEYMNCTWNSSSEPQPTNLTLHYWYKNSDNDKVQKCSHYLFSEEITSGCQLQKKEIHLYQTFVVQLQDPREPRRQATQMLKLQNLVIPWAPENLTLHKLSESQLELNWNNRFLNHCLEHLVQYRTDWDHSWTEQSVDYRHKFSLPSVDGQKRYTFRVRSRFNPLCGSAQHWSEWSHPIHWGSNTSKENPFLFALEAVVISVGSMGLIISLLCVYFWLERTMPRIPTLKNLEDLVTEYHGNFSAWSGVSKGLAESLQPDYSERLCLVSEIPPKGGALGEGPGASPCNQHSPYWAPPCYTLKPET

[5] = molecular target: T1, human IL-21R expressed on cells; assay: cell-based or functional assay
[6] = molecular target: murine IL-21R expressed on cells (murine, UniProt Q9JHX3 20-529); assay: cell-based or functional assay
[7] = molecular target: T5, human IL-21R extracellular domain His-Flag fusion protein (human, UniProt Q9HBE5 20-232); assay: SPR, Ab captured on anti-human IgG, replicate experiment
T5 construct: Biotinylated in the HTRF screen; also called hIL-21R-H/F; human IL-21R-H/F
Procedure: The kinetics of binding of anti-IL-21R antibodies to human and murine IL-21R-H/F was tested on a BIACORE™ surface plasmon resonance instrument. Anti-human IgG antibodies (Invitrogen Corporation) were immobilized onto a research-grade carboxy-methyl-dextran chip (CM5) using standard amine coupling. The surface was activated with EDC/NHS for 7 min at a flow of 20 μl/min. The first flow cell was used as a reference surface to correct for bulk refractive index, matrix effects, and nonspecific binding. The anti-human-Fc antibody was diluted to 20 μg/ml in 10 mM sodium acetate buffer (pH 5.0), and 2950-3405 resonance units (RU) were captured on each of the four flow cells. Remaining activated groups were blocked with 1.0 M ethanolamine-HCl (pH 8.5).
Anti-IL-21R antibodies were diluted to 0.1-0.2 μg/ml in HBS/EP buffer supplemented with 0.2% bovine serum albumin and loaded onto the BIACORE™ chip. Following a brief washing period, solutions of 0-100 nM human IL-21R-H/F or 10-500 nM murine IL-21R-H/F were injected over the chip at a flow rate of 50 μl/min. The association phase was run for 3 min for human and murine IL-21R kinetics, and the dissociation phase was monitored for 15 min for hIL-21R and for 5 min for mIL-21R, followed by two 10 μl injections and one 30 μl injection of glycine (pH 1.5), to regenerate a fully active capturing surface. All binding experiments were done at 25° C. in HBS/EP buffer, and the sample rack was kept at 15° C. Blank and buffer effects were subtracted for each sensorgram using double referencing.

[8] = molecular target: T1, human IL-21R expressed on cells; assay: cell-based or functional assay; remark: listed apart in the source

T1 sequence (Q9HBE5 20-538 limits assumed): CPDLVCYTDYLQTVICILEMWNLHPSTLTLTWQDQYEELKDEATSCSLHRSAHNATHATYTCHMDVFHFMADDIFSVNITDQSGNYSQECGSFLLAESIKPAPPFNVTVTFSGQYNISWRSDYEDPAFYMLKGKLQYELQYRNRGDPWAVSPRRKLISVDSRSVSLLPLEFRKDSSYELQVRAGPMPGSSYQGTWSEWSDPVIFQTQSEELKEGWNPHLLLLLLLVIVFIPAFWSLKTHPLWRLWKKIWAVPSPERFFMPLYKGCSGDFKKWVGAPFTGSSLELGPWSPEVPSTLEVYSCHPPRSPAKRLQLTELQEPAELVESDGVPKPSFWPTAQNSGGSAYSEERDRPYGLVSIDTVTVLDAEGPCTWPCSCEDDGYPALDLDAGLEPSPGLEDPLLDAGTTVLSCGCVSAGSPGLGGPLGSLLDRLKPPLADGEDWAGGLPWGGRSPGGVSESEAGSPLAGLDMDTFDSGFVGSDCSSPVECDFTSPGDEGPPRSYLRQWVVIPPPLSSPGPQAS
murine IL-21R expressed on cells, sequence (Q9JHX3 20-529 limits assumed): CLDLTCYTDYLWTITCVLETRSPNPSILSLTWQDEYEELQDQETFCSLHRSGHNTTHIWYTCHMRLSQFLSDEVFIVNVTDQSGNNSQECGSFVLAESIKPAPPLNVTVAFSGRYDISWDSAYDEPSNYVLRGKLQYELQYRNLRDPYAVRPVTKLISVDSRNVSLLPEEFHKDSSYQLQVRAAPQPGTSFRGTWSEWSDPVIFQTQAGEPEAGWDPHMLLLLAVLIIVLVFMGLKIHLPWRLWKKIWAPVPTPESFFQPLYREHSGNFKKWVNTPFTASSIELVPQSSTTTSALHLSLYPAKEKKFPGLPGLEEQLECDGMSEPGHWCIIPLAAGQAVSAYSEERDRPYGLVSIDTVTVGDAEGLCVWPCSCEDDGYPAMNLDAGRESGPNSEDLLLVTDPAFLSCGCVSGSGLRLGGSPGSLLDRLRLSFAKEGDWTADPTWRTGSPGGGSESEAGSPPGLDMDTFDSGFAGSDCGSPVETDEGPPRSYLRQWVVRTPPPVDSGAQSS
T5 sequence (Q9HBE5 20-232): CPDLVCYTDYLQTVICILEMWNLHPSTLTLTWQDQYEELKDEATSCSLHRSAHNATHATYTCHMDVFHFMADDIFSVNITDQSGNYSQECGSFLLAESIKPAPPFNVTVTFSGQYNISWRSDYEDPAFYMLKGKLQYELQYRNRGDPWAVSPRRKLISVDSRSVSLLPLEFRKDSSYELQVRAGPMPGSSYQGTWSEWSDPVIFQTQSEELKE

Binder | A450 (13 nM Ab) [1] [A450] | A450 (13 nM Ab) [2] [A450] | A450 (13 nM Ab) [3] [A450] | A450 (13 nM Ab) [4] [A450] | Human IL-21R-BaF3 Proliferation IC50 [5] [nM] | Human IL-21R-TF1 Proliferation IC50 [5] [nM] | Murine IL-21R-BaF3 Proliferation IC50 [6] [nM] | Kd [7] [nM] | koff [7] [s⁻¹] | kon [7] [M⁻¹ s⁻¹] | Neutralization of B cell proliferation IC50 [8] [nM]
AbP (antibody, human IgG1, V domains shown, CDR3 graft, residue limits derived as for m29; also called VHP/VL20; VHPTM/VL20) VH: QVQLQESGPGLVKPSETLSLTCAVSGYSISSGYYWGWIRQPPGKGLEWIGSISHTGNTYYNPPLKSRVTISVDTSKNQFSLKLSSVTAADTAVYYCARGGGISRPEYWGQGTLVTVSS VL: SSELTQDPAVSVALGQTVRITCQGDSLRTYYASWYQQKPGQAPVLVIYGKHKRPSGIPDRFSGSSSGNTASLTITGAQAEDEADYYCVSRSAKGNPHVLFGGGTQLTVL | 1.31 | 1.03 | 1.31 | 0.112 | 0.75 | 3.48 | 0.03 | 0.436 | 0.000102 | 233000 | –
AbO (antibody, human IgG1, V domains shown, CDR3 graft, residue limits derived as for m29; also called VHP/VL16; VHPTM/VL16) VH: QVQLQESGPGLVKPSETLSLTCAVSGYSISSGYYWGWIRQPPGKGLEWIGSISHTGNTYYNPPLKSRVTISVDTSKNQFSLKLSSVTAADTAVYYCARGGGISRPEYWGQGTLVTVSS VL: SSELTQDPAVSVALGQTVRITCQGDSLRTYYASWYQQKPGQAPVLVIYGKHKRPSGIPDRFSGSSSGNTASLTITGAQAEDEADYYCVTRSAKGNPHVLFGGGTQLTVL | 1.11 | 1.1 | 1.36 | 0.108 | 0.52 | 2.91 | 0.065 | – | – | – | –
AbQ (antibody, human IgG1, V domains shown, CDR3 graft, residue limits derived as for m29; also called VH3/VL2; VH3DM/VL2) VH: QVQLQESGPGLVKPSETLSLTCAVSGYSISSGYYWGWIRQPPGKGLEWIGSISHTGNTYYNPPLKSRVTISVDTSKNQFSLKLSSVTAADTAVYYCARFMGFGRPEYWGQGTLVTVSS VL: SSELTQDPAVSVALGQTVRITCQGDSLRTYYASWYQQKPGQAPVLVIYGKHKRPSGIPDRFSGSSSGNTASLTITGAQAEDEADYYCVARSVVGNPHVLFGGGTQLTVL | 1.25 | 1.16 | 1.31 | 0.125 | 0.68 | 4.62 | 0.153 | 0.213 | 9.34e-05 | – | 0.16
AbS (antibody, V domains shown, CDR3 graft, residue limits derived as for m29; also called VHP/VL6; VHPTM/VL6) VH: QVQLQESGPGLVKPSETLSLTCAVSGYSISSGYYWGWIRQPPGKGLEWIGSISHTGNTYYNPPLKSRVTISVDTSKNQFSLKLSSVTAADTAVYYCARGGGISRPEYWGQGTLVTVSS VL: SSELTQDPAVSVALGQTVRITCQGDSLRTYYASWYQQKPGQAPVLVIYGKHKRPSGIPDRFSGSSSGNTASLTITGAQAEDEADYYCMSRSIWGNPHVLFGGGTQLTVL | 1.02 | 1.17 | 1.22 | 0.118 | 1.53 | 5 | 0.04 | 1.51 | 0.000305 | 202000 | 0.44
AbR (antibody, human IgG1, V domains shown, CDR3 graft, residue limits derived as for m29; also called VH3/VL18; VH3DM/VL18) VH: QVQLQESGPGLVKPSETLSLTCAVSGYSISSGYYWGWIRQPPGKGLEWIGSISHTGNTYYNPPLKSRVTISVDTSKNQFSLKLSSVTAADTAVYYCARFMGFGRPEYWGQGTLVTVSS VL: SSELTQDPAVSVALGQTVRITCQGDSLRTYYASWYQQKPGQAPVLVIYGKHKRPSGIPDRFSGSSSGNTASLTITGAQAEDEADYYCVTRSVKGNPHVLFGGGTQLTVL | 1.33 | 1.11 | 1.35 | 0.109 | 0.87 | 3.94 | 0.302 | 0.394 | 9.76e-05 | 248000 | 0.22

The remaining lines, values ahead:

A450 (13 nM Ab) [1] [A450] | A450 (13 nM Ab) [2] [A450] | A450 (13 nM Ab) [3] [A450] | A450 (13 nM Ab) [4] [A450] | Human IL-21R-BaF3 Proliferation IC50 [5] [nM] | Human IL-21R-TF1 Proliferation IC50 [5] [nM] | Murine IL-21R-BaF3 Proliferation IC50 [6] [nM] | Kd [7] [nM] | koff [7] [s⁻¹] | kon [7] [M⁻¹ s⁻¹] | Neutralization of B cell proliferation IC50 [8] [nM] | Binder
– | – | – | – | – | – | – | 4.4 | 0.00134 | 304000 | 1.86 | parental 18A5 antibody (antibody, V domains shown, also called 18A5 IgG) VH: QVQLQESGPGLVKTSETLSLTCAVSGYSISSGYYWGWIRQPPGKGLEWIGSISHTGNTYYNPPLKSRVTISVDTSKNQFSLKLSSVTAADTAVYYCARGGGISRPEYWGKGTLVTVSS VL: SSELTQDPPVSVALGQTVTLTCQGDSLRTYYASWYQQKSGQAPILLLYGKHKRPSGIPDRFSGSTSGDTASLTITGAQAEDEADYYCNSRDSSGNPHVLFGGGTQLTVL
1.08 | 0.994 | 1.22 | 0.102 | 0.67 | 3.26 | 0.093 | 0.272 | 7.42e-05 | 273000 | 0.14 | AbT (antibody, human IgG1, V domains shown, CDR3 graft, residue limits derived as for m29; also called VHP/VL9; VHPTM/VL9) VH: QVQLQESGPGLVKPSETLSLTCAVSGYSISSGYYWGWIRQPPGKGLEWIGSISHTGNTYYNPPLKSRVTISVDTSKNQFSLKLSSVTAADTAVYYCARGGGISRPEYWGQGTLVTVSS VL: SSELTQDPAVSVALGQTVRITCQGDSLRTYYASWYQQKPGQAPVLVIYGKHKRPSGIPDRFSGSSSGNTASLTITGAQAEDEADYYCVARSNKGNPHVLFGGGTQLTVL
1.29 | 0.927 | 1.31 | 0.104 | 0.73 | 3.13 | 0.184 | 0.329 | 7.83e-05 | 238000 | 0.13 | AbU (antibody, human IgG1, V domains shown, CDR3 graft, residue limits derived as for m29; also called VHP/VL25; VHPTM/VL25) VH: QVQLQESGPGLVKPSETLSLTCAVSGYSISSGYYWGWIRQPPGKGLEWIGSISHTGNTYYNPPLKSRVTISVDTSKNQFSLKLSSVTAADTAVYYCARGGGISRPEYWGQGTLVTVSS VL: SSELTQDPAVSVALGQTVRITCQGDSLRTYYASWYQQKPGQAPVLVIYGKHKRPSGIPDRFSGSSSGNTASLTITGAQAEDEADYYCTTRSNKGNPHVLFGGGTQLTVL
